Results: patent CN110760003A

Biological target: 人HER3胞外区蛋白 (human HER3 extracellular region protein) (human) (UniProt P21860)
Assay: ELISA; human HER3 extracellular region coated at 2 μg/mL, scFv at 2 μg/mL, detected with HRP anti-6×His Tag antibody, TMB, triplicate wells (mean ± deviation)

吸光度(A450)均值: 0.961 A450
B1: 抗HER3单链抗体 (anti-HER3-scFv) (scFv)
scFv: QVQLVESGGGLVQPGGSLRLSCAASGFTFSSYAMSWVRQAPGKGLEWVSAINSQGKSTYYADSVKGRFTISRDNSKNTLYLQMNSLRAEDTAVYYCARWGDEGFDIWGQGTLVTVSSGGGGSGGGGSGGGGSDIQMTQSPSSLSASVGDRVTITCRASQGISNWLAWYQQKPGKAPKLLIYGASSLQSGVPSRFSGSGSGTDFTLTISSLQPEDFAVYYCQQYSSFPTTFGQGTKVEIK
